Measured values as given in patent US5800815, “Antibodies to P-selectin and their uses” (Cytel Corporation, dated 1998).
No end group written: not given here.

T1: peptide CQNRYTDLVAIQNKNE
T1 peptide: CQNRYTDLVAIQNKNE-NH2


Columns and labels:
[1] = target: T2, recombinant soluble P-selectin (Homo sapiens (Human), UniProt P16109); assay: competitive ELISA on rsP-selectin; unlabelled PB1.3 against biotinylated PB1.3
Experimental: (§1) A 96-well plate (MICROTEST III, FALCON #3912) was coated with 50 μl/well of rsP-selectin (diluted to 2 μg/ml in DPBS) overnight at 4° C. or 90 min at 37° C. The plate was inverted and residual fluid was tapped away.
(§2) The coated plate and an additional blank plate were blocked with 200 µl/well of DPBS+1% bovine serum albumin (BSA, SIGMA #A-7888), for 1 h at room temperature. The blank plate was inverted and the residual blocking fluid was tapped away. The rsP-selectin coated plate was allow to continue blocking during the antibody dilution period. Serially diluted sample antibodies (in DPBS+1% BSA) were added to the blank plate at 50 µl/well. The initial concentrations of the antibodies were 100 µg/ml. Biotinylated-PB1.3 (diluted to 0.3 µg/ml in DPBS+1% BSA) was added to the sample antibodies in the blank plate, 50 µl/well, and mixed by pipetting up and down. The rsP-selectin coated plate was washed three times with DPBS. The sample antibody/biotinylated -PB1.3 mixture was pipetted into the plate coated with rsP-selectin, 50 µl/well, and allowed to incubate for one h at room temperature. The plate was then washed three times with DPBS.
(§3) Streptavidin horse radish peroxidase conjugate (PIERCE #21124) diluted 1:2000 in DPBS+1% BSA was added to the plate, 50 µl/well and allowed to incubate for 1 h at room temperature. The plate was then washed three times with DPBS.

peptide CQNRYTDLVAIQNKNE = target: T1, peptide CQNRYTDLVAIQNKNE; assay: indirect: soluble peptide as competitor in ELISA of PB1.3 on affinity purified P-selectin
Experimental: III. […] Dilutions of mu MAb PB1.3 in DPBS+1% BSA were mixed with either 0.35 mg/ml CQNRYT-[…] (SEQ ID No: 1) in PBS, or as a control, PBS alone. After 1 hr, 50 μl of each antibody dilution was added to the microtiter plate, and incubated for 1 hr. The plate was washed with DPBS, and a 1 to 1000 dilution of sheep anti-mouse IgG horseradish peroxidase conjugate in DPBS+ 1% BSA was added. After 1 hr, the plate was washed, the substrate TMB was added, and the color development was stopped and the plates read as above.

P-selectin Δ5CRP = P-selectin Δ5CRP (human, UniProt P16109); assay: direct ELISA of COS cell supernatants
[2] = target: T2, recombinant soluble P-selectin; assay: ELISA on plates coated with rsP-selectin, COS cell supernatants
Experimental: Media from the transfected COS cells were assayed by ELISA to quantify levels of human antibody produced and analyze capacity to bind to recombinant soluble P-selectin (rsP-selectin). Immulon microtiter plates ([…], #011-010-3355) were coated with 100 μl/well of a solution of goat anti-human IgG (whole molecule, SIGMA #I-1886) to a final concentration of 12.5 μg/ml or a solution of rsP-selectin (1.2 mg/ml) diluted in Dulbecco's phosphate buffered saline (DPBS). Plates were coated overnight at 4° C. or for 2 h at 37° C. The plates were then washed three times with DPBS. The plates were then blocked with 400 μl/well of DPBS+1% bovine serum albumin (BSA, SIGMA, #A-7888) for one h or longer at room temperature. The plates were then washed three times with DPBS.
Serial dilutions of the monoclonal antibodies in DPBS+ 1% BSA were added to the plates (100 μl/well), and the plates were incubated for 1 h at room temperature. The plates were then washed three times with DPBS. 100 μl/well of a second antibody (goat anti-human IgG peroxidase conjugate, SIGMA #A-8867) diluted 1 to 1000 in DPBS+ 1% BSA was added to the plates, and the plates were incubated for one h at room temperature. The plates were then washed three times with DPBS. […] The plates were read at 450 nm in a […] […]

[3] = target: T2, recombinant soluble P-selectin; assay: competitive ELISA on rsP-selectin; reference unlabelled PB1.3
Experimental: as §1, §2, §3

[4] = target: T2, recombinant soluble P-selectin; assay: competitive ELISA on rsP-selectin; competitor biotinylated PB1.3
Experimental: as §1, §2, §3

Binder	binding result [2]	binding relative to PB1.3 [3] [%]	also measured
mu MAb PB1.3 (antibody, V domains shown) VH: EAQLQQSGPELVEPGASVKVSCKASGYTFTNYVMHWVKQKPGQGLEWIGFINPSNDGPKYNERFKNKATLTSDKSSSTAYMELSSLTSEVSAVYFCARARPGFDWYFDVWGAGTTVTVSS VL: DIVMTQSQKFMSTSVGDRVSVTCKASQNVATNVVWYQQRPGQSPKALIYTASYRFSGVPERFSGSGSGTDFTLTITNVQSEDLADYFCQQYNNYPYTFGGGTKVEIQ			IC50 [1]: 1 mg/L; binding result (peptide CQNRYTDLVAIQNKNE): no binding (tested: 0.35 mg/ml); binding result (P-selectin Δ5CRP): no binding
reshaped MAb PB1.3, heavy chain CY1748RHA with light chain CY1748RLB (antibody, V domains shown) VH: EAQLVQSGAEVKKPGASVKVSCKASGYTFTNYVMHWVRQAPGQRLEWMGFINPSNDGPKYNERFKNRVTITSDTSASTAYMELSSLRSEDTAVYYCARARPGFDWYFDVWGQGTLVTVSS VL: DIQMTQSPSTLSASVGDRVTVTCKASQNVATNVVWYQQKPGEAPKALIYTASYRFSGVPSRFSGSGSGTDFTLTISSLQSDDFATYYCQQYNNYPYTFGQGTKLEIK	binds		
reshaped MAb PB1.3 (HB/LD), IgG4 isotype (antibody, V domains shown) VH: QVQLVQSGAEVKKPGASVKVSCKASGYTFTNYVMHWVRQAPGQRLEWMGFINPSNDGPKYNERFKNRVTITSDTSASTAYMELSSLRSEDTAVYYCARARPGFDWYFDVWGQGTLVTVSS VL: DIQMTQSPSTLSASVGDRVTVTCKASQNVATNVVWYQQKPGEAPKALIYTASYRFSGVPSRFSGSGSGTEFTLTISSLQSDDFATYYCQQYNNYPYTFGQGTKLEIK		50	
reshaped MAb PB1.3, heavy chain CY1748RHA with light chain CY1748RLC (antibody, V domains shown) VH: EAQLVQSGAEVKKPGASVKVSCKASGYTFTNYVMHWVRQAPGQRLEWMGFINPSNDGPKYNERFKNRVTITSDTSASTAYMELSSLRSEDTAVYYCARARPGFDWYFDVWGQGTLVTVSS VL: DIQMTQSPSTLSASVGDRVTVTCKASQNVATNVVWYQQKPGEAPKALIYTASYRFSGVPERFSGSGSGTEFTLTISSLQSDDFATYYCQQYNNYPYTFGQGTKLEIK	binds		
reshaped MAb PB1.3 (HA/LA), IgG1 isotype (antibody, V domains shown) VH: EAQLVQSGAEVKKPGASVKVSCKASGYTFTNYVMHWVRQAPGQRLEWMGFINPSNDGPKYNERFKNRVTITSDTSASTAYMELSSLRSEDTAVYYCARARPGFDWYFDVWGQGTLVTVSS VL: DIQMTQSPSTLSASVGDRVTVTCKASQNVATNVVWYQQKPGEAPKALIYTASYRFSGVPERFSGSGSGTDFTLTISSLQSDDFATYYCQQYNNYPYTFGQGTKLEIK		50	IC50 [4]: 2 mg/L
